{"source": "paper PMC5793714", "about": "“Functional implications of corticosteroid-binding globulin N-glycosylation” (Journal of Molecular Endocrinology, 2017)", "proteins": {"B1": {"name": "human CBG (corticosteroid-binding globulin): tunicamycin (human CBG) (protein)", "parent chain": "MPLLLYTCLLWLPTSGLWTVQAMDPNAAYVNMSNHHRGLASANVDFAFSLYKHLVALSPKKNIFISPVSISMALAMLSLGTCGHTRAQLLQGLGFNLTERSETEIHQGFQHLHQLFAKSDTSLEMTMGNALFLDGSLELLESFSADIKHYYESEVLAMNFQDWATASRQINSYVKNKTQGKIVDLFSGLDSPAILVLVNYIFFKGTWTQPFDLASTREENFYVDETTVVKVPMMLQSSTISYLHDSELPCQLVQMNYVGNGTVFFILPDKGKMNTVIAALSRDTINRWSAGLTSSQVDLYIPKVTISGVYDLGDVLEEMGIADLFTNQANFSRITQDAQLKSSKVVHKAVLQLNEEGVDTAGSTGVTLNLTSKPIILRFNQPFIIMIFDHFTWSSLFLARVMNPV"}, "B2": {"name": "human CBG (corticosteroid-binding globulin): tunicamycin (CBG N238) (protein)", "parent chain": "MPLLLYTCLLWLPTSGLWTVQAMDPNAAYVNMSNHHRGLASANVDFAFSLYKHLVALSPKKNIFISPVSISMALAMLSLGTCGHTRAQLLQGLGFNLTERSETEIHQGFQHLHQLFAKSDTSLEMTMGNALFLDGSLELLESFSADIKHYYESEVLAMNFQDWATASRQINSYVKNKTQGKIVDLFSGLDSPAILVLVNYIFFKGTWTQPFDLASTREENFYVDETTVVKVPMMLQSSTISYLHDSELPCQLVQMNYVGNGTVFFILPDKGKMNTVIAALSRDTINRWSAGLTSSQVDLYIPKVTISGVYDLGDVLEEMGIADLFTNQANFSRITQDAQLKSSKVVHKAVLQLNEEGVDTAGSTGVTLNLTSKPIILRFNQPFIIMIFDHFTWSSLFLARVMNPV"}, "B3": {"name": "human CBG (corticosteroid-binding globulin): T349A (protein)", "parent chain": "MPLLLYTCLLWLPTSGLWTVQAMDPNAAYVNMSNHHRGLASANVDFAFSLYKHLVALSPKKNIFISPVSISMALAMLSLGTCGHTRAQLLQGLGFNLTERSETEIHQGFQHLHQLFAKSDTSLEMTMGNALFLDGSLELLESFSADIKHYYESEVLAMNFQDWATASRQINSYVKNKTQGKIVDLFSGLDSPAILVLVNYIFFKGTWTQPFDLASTREENFYVDETTVVKVPMMLQSSTISYLHDSELPCQLVQMNYVGNGTVFFILPDKGKMNTVIAALSRDTINRWSAGLTSSQVDLYIPKVTISGVYDLGDVLEEMGIADLFTNQANFSRITQDAQLKSSKVVHKAVLQLNEEGVDTAGSTGVTLNLTSKPIILRFNQPFIIMIFDHFTWSSLFLARVMNPV"}, "B4": {"name": "human CBG (corticosteroid-binding globulin): N347Q (protein)", "parent chain": "MPLLLYTCLLWLPTSGLWTVQAMDPNAAYVNMSNHHRGLASANVDFAFSLYKHLVALSPKKNIFISPVSISMALAMLSLGTCGHTRAQLLQGLGFNLTERSETEIHQGFQHLHQLFAKSDTSLEMTMGNALFLDGSLELLESFSADIKHYYESEVLAMNFQDWATASRQINSYVKNKTQGKIVDLFSGLDSPAILVLVNYIFFKGTWTQPFDLASTREENFYVDETTVVKVPMMLQSSTISYLHDSELPCQLVQMNYVGNGTVFFILPDKGKMNTVIAALSRDTINRWSAGLTSSQVDLYIPKVTISGVYDLGDVLEEMGIADLFTNQANFSRITQDAQLKSSKVVHKAVLQLNEEGVDTAGSTGVTLNLTSKPIILRFNQPFIIMIFDHFTWSSLFLARVMNPV"}, "B5": {"name": "rat CBG: tunicamycin (protein)", "parent chain": "MSLALYTCLLWLCTSGLWTAQASTNESSNSHRGLAPTNVDFAFNLYQRLVALNPDKNTLISPVSISMALAMVSLGSAQTQSLQSLGFNLTETSEAEIHQSFQYLNYLLKQSDTGLEMNMGNAMFLLQKLKLKDSFLADVKQYYESEALAIDFEDWTKASQQINQHVKDKTQGKIEHVFSDLDSPASFILVNYIFLRGIWELPFSPENTREEDFYVNETSTVKVPMMVQSGSIGYFRDSVFPCQLIQMDYVGNGTAFFILPDQGQMDTVIAALSRDTIDRWGKLMTPRQVNLYIPKFSISDTYDLKDMLEDLNIKDLLTNQSDFSGNTKDVPLTLTMVHKAMLQLDEGNVLPNSTNGAPLHLRSEPLDIKFNKPFILLLFDKFTWSSLMMSQVVNPA"}, "B6": {"name": "rat CBG: N230D (protein)", "parent chain": "MSLALYTCLLWLCTSGLWTAQASTNESSNSHRGLAPTNVDFAFNLYQRLVALNPDKNTLISPVSISMALAMVSLGSAQTQSLQSLGFNLTETSEAEIHQSFQYLNYLLKQSDTGLEMNMGNAMFLLQKLKLKDSFLADVKQYYESEALAIDFEDWTKASQQINQHVKDKTQGKIEHVFSDLDSPASFILVNYIFLRGIWELPFSPENTREEDFYVNETSTVKVPMMVQSGSIGYFRDSVFPCQLIQMDYVGNGTAFFILPDQGQMDTVIAALSRDTIDRWGKLMTPRQVNLYIPKFSISDTYDLKDMLEDLNIKDLLTNQSDFSGNTKDVPLTLTMVHKAMLQLDEGNVLPNSTNGAPLHLRSEPLDIKFNKPFILLLFDKFTWSSLMMSQVVNPA"}}, "key": {"Western blot of medium": {"experiment": "Western blot of medium", "conditions": "glycan lost, control: untreated CHO-S cells"}, "[1]": {"experiment": "loss of cortisol-binding capacity after protease incubation", "conditions": "glycan lost; control: un-mutated CBG"}, "[2]": {"experiment": "Western blot of culture medium", "conditions": "glycan lost; control: rat CBG"}}, "data": [{"protein": "B1", "values": [{"measurement": "expression_or_secretion, other: % of untreated", "setting": "Western blot of medium; same construct", "value": "decreases"}]}, {"protein": "B2", "values": [{"measurement": "expression_or_secretion, other: % of untreated", "setting": "Western blot of medium; same construct", "value": "decreases"}]}, {"protein": "B3", "values": [{"measurement": "other: protease susceptibility", "setting": "[1]", "value": "increases"}]}, {"protein": "B4", "values": [{"measurement": "other: protease susceptibility", "setting": "[1]", "value": "increases"}]}, {"protein": "B5", "values": [{"measurement": "expression_or_secretion, other: % of untreated", "setting": "Western blot of medium", "value": "decreases"}]}, {"protein": "B6", "values": [{"measurement": "expression_or_secretion", "setting": "[2]", "value": "no change"}]}]}
